The values below come from patent US20180030127A1 (APRILBIO, published 2018).

Experiment [1] has as its target T1, bovine serum albumin (bovine, UniProt P02769 25-607).
T1 construct: also called BSA; bovine SA
The experiment can be described thus: monoclonal phage ELISA at pH 6, antigen coated at 5 ug/ml, anti-human kappa-HRPO, A450. How it is done: For the monoclonal phage ELISA, the recombinant phage was obtained from positive E. coli clones by phage rescue, and ˜10⁸ CFU/well were added to MaxiSorb ELISA plates (Nunc, Roskilde, Denmark) that were coated with 5 μg/ml HSA, RSA, MSA or BSA. The phage was allowed to bind to the antigens either at pH 6 or at pH 7.4 for 1 h at 37° C. A goat anti-human kappa L Ab-conjugated with HRPO (Sigma-Aldrich) was used as a secondary antibody. The binding signals were visualized with a TMB substrate (BD Science, San Jose, Calif., USA), and the absorbance at 450 nm was measured using an ELISA reader (Bio-Rad, Hercules, Calif., USA). The data represent the average of three experiments standard deviation. For the conventional ELISA, the various antigens [human SA, rat SA, mouse SA, monkey SA (Alpha diagnositic Intl., San Antonio, Tex., USA), canine SA (CUSABIO, Wuhan, Hubei, China). rabbit SA (Sigma-Aldrich), epidermal growth factor receptor (EGFR) (R&D systems, Minneapolis, Minn., USA), epithelial cell adhesion molecule (EpCAM) (R&D systems), IL-15 receptor a (IL-15Ra) (R&D systems), IL-10 (eBioscience, San Diego, Calif., USA), CD16a (R&D systems), c-MET (Sinobiological, Beijing, China)] at 5 μg/ml concentrations were immobilized on the microtiter plates, and the Fab molecules were allowed to bind to the antigens, and detected as above. To determine the concentration of soluble Fab or Fab-hGH fusion proteins, a sandwich ELISA was performed using a mouse anti-human IgG Fd mAb (AprilBio) as a capturing Ab and the goat anti-human kappa L chain pAb-HRPO conjugated (Sigma-Aldrich) as a detecting antibody. The human Fab fragment (Bethyl, Montgomery, Tex., USA) with a known concentration was used to draw the standard curve. For detecting the hGH domain, T-20, a goat pAb specific for the C-terminus of the hGH (Santacruz Biotechnology, Dallas, Tex., USA) and NYThGH, a mouse mAb specific for full-length hGH (Prospec, East Brunswick, N.J., USA) were used followed by a rabbit anti-goat IgG pAb-HRPO conjugated (Sigma-Aldrich) or a goat anti-mouse IgG pAb-HRPO conjugated (Sigma-Aldrich), respectively as a secondary antibody. A goat anti-human GCSF pAb (R&D Systems) was used to detecting the G-CSF domain, and a rabbit anti-human IFN-β pAb (PEPROTECH, Rocky Hill, USA) was used to detect the IFN-β domain.
For orientation: In an ELISA, binding on a coated surface is turned into a signal by an enzyme label.

In experiment [2] the target is T2, human serum albumin (human, UniProt P02768 25-609).
T2 construct: Bought protein; also called HSA; human SA
The experiment can be described thus: ELISA, purified soluble Fab on coated HSA, pH 6; human SA, pH 6. The protocol: (§1) For the monoclonal phage ELISA, the recombinant phage was obtained from positive E. coli clones by phage rescue, and ˜10⁸ CFU/well were added to MaxiSorb ELISA plates (Nunc, Roskilde, Denmark) that were coated with 5 μg/ml HSA, RSA, MSA or BSA. The phage was allowed to bind to the antigens either at pH 6 or at pH 7.4 for 1 h at 37° C. A goat anti-human kappa L Ab-conjugated with HRPO (Sigma-Aldrich) was used as a secondary antibody. The binding signals were visualized with a TMB substrate (BD Science, San Jose, Calif., USA), and the absorbance at 450 nm was measured using an ELISA reader (Bio-Rad, Hercules, Calif., USA). The data represent the average of three experiments standard deviation. For the conventional ELISA, the various antigens [human SA, rat SA, mouse SA, monkey SA (Alpha diagnositic Intl., San Antonio, Tex., USA), canine SA (CUSABIO, Wuhan, Hubei, China). rabbit SA (Sigma-Aldrich), epidermal growth factor receptor (EGFR) (R&D systems, Minneapolis, Minn., USA), epithelial cell adhesion molecule (EpCAM) (R&D systems), IL-15 receptor a (IL-15Ra) (R&D systems), IL-10 (eBioscience, San Diego, Calif., USA), CD16a (R&D systems), c-MET (Sinobiological, Beijing, China)] at 5 μg/ml concentrations were immobilized on the microtiter plates, and the Fab molecules were allowed to bind to the antigens, and detected as above. […]

Experiment [3] has as its target T2, human serum albumin. The experiment in a line: ELISA, purified soluble Fab on coated HSA, pH 7.4; human SA, pH 7.4. The protocol:
as §1

The target of experiment [4] is T3, epidermal growth factor receptor (UniProt P00533 25-645).
T3 construct: also called EGFR
The experiment can be described thus: ELISA, soluble Fab, antigen coated at 5 µg/ml.

Experiment [5] concerns the target CD16a (UniProt P08637 17-208). The experiment can be described thus: ELISA, soluble Fab, antigen coated at 5 µg/ml.
The target in experiment [6] is c-MET (UniProt P08581 25-932, limits assumed). The experiment can be described thus: ELISA, soluble Fab, antigen coated at 5 µg/ml.
Experiment [7] concerns the target T4, rabbit serum albumin (rabbit, UniProt P49065 25-608).
T4 construct: also called rabbit SA
The experiment can be described thus: ELISA, soluble Fab, antigen coated at 5 µg/ml.

Experiment [8] deals with T5, IL-1b (UniProt P01584 117-269, limits assumed).
T5 construct: The identity is uncertain because the two printings differ
The experiment can be described thus: ELISA, soluble Fab, antigen coated at 5 µg/ml.

In experiment [9] the target is T6, cynomolgus monkey serum albumin (cynomolgus monkey, UniProt A2V9Z4 25-608).
T6 construct: also called cynomolgus monkey SA; monkey SA
The experiment in a line: ELISA, soluble Fab, antigen coated at 5 µg/ml.

For experiment [10], the target named is T7, IL-15 receptor a (UniProt Q13261 31-205).
T7 construct: also called IL-15Ra
The experiment can be described thus: ELISA, soluble Fab, antigen coated at 5 µg/ml.

In experiment [11] the target is T8, epithelial cell adhesion molecule (UniProt P16422 24-265).
T8 construct: also called EpCAM
T8 sequence (looked up): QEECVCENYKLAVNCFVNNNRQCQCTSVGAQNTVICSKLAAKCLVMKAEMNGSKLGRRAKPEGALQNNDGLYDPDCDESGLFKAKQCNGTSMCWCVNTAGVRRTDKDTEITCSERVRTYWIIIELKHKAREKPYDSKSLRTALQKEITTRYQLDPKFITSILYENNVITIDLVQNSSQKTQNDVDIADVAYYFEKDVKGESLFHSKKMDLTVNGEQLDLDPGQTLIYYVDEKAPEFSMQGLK
The experiment can be described thus: ELISA, soluble Fab, antigen coated at 5 µg/ml.

For experiment [12], the target named is T2, human serum albumin. The experiment in a line: ELISA, purified soluble Fab on coated HSA.

T7 sequence (Q13261 31-205 limits assumed): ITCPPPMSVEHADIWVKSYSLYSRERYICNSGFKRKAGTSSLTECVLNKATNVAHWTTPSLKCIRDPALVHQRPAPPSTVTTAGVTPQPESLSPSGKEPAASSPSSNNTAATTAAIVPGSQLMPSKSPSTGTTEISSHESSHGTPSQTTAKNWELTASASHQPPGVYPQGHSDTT
T4 sequence (P49065 25-608 limits assumed): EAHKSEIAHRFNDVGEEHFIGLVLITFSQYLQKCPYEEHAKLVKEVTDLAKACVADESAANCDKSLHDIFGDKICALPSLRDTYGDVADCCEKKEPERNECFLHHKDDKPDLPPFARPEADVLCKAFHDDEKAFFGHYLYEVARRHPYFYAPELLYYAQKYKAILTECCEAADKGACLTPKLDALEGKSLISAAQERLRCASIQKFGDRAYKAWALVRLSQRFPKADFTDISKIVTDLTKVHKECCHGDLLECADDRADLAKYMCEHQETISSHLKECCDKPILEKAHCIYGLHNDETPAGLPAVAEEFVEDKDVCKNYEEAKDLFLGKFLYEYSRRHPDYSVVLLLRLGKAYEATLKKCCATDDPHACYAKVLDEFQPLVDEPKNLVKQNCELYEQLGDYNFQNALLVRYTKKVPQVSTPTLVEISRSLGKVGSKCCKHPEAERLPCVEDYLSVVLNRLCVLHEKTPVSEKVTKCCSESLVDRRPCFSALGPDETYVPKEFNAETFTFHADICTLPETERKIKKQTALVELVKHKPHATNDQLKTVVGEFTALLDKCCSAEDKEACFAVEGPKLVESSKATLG
CD16a, sequence (P08637 17-208 limits assumed): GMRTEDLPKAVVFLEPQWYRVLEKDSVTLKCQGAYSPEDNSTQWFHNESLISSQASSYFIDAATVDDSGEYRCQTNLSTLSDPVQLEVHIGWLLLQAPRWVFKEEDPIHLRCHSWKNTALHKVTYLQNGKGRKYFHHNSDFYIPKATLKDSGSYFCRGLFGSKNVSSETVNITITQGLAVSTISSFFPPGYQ
T6 sequence (A2V9Z4 25-608 limits assumed): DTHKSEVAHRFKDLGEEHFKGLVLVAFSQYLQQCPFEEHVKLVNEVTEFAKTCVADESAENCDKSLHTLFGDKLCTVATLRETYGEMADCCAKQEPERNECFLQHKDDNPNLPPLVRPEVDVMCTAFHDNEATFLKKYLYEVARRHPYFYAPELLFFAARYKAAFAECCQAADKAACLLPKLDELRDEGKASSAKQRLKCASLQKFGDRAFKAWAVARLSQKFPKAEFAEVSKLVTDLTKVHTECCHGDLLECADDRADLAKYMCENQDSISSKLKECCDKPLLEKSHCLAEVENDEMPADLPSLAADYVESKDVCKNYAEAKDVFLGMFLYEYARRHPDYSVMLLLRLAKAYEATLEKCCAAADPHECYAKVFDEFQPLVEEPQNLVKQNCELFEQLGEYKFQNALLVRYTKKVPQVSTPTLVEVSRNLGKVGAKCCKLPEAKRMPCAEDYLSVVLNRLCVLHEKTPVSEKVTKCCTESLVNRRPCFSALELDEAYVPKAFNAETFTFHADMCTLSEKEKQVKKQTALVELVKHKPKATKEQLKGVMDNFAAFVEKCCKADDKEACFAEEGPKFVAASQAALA
c-MET, sequence (P08581 25-932 limits assumed): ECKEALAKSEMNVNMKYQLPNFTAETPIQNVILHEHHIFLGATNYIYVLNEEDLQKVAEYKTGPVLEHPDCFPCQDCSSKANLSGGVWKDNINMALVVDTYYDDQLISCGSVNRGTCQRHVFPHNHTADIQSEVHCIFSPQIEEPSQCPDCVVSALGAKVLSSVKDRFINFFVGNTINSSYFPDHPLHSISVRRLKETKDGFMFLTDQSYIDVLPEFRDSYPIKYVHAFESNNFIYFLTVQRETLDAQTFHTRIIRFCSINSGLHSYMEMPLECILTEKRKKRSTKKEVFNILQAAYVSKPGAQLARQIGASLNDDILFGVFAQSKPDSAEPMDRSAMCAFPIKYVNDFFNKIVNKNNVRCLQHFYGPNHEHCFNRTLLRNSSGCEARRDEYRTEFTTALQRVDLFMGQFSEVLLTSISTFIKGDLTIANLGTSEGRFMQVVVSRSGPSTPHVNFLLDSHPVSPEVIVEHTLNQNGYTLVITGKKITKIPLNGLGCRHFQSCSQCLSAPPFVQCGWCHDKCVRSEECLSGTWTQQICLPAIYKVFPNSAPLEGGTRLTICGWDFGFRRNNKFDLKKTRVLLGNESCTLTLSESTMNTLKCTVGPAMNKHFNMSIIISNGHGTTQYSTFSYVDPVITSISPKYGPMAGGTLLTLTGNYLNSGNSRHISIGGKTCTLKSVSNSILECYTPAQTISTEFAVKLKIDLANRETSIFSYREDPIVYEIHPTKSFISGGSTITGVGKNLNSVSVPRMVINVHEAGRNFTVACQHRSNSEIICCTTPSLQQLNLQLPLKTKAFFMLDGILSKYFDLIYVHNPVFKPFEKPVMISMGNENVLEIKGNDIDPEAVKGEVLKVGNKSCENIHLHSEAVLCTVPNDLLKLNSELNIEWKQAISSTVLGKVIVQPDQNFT
T1 sequence (P02769 25-607 limits assumed): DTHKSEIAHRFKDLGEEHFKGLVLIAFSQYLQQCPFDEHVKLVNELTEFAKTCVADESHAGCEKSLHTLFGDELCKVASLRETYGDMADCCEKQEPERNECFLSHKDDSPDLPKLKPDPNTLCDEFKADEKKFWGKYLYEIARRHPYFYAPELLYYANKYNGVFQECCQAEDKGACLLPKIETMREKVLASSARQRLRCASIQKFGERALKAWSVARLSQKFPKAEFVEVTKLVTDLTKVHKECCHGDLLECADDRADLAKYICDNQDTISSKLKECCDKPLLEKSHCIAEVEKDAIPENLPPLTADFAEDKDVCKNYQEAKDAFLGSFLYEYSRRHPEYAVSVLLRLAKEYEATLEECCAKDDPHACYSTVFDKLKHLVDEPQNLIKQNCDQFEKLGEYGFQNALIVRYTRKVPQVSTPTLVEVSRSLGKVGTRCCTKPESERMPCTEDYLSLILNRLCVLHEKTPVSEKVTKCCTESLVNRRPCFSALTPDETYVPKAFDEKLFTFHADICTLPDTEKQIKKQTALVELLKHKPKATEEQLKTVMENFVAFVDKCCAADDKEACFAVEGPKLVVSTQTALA

B1: SL335 (Fab, V domains shown)
VH: QVQLVQSGGGPVKPGGSLRLSCAASGFMFRAYSMNWVRQAPGKGLEWVSSISSSGRYIHYADSVKGRFTISRDNAKNSLYLQMNSLRAEDTAVYYCARETVMAGKALDYWGQGTLVTVSS
VL: ELVLTQSPGTLSLSPGETATLSCRASQSVGSNLAWYQQKPGQAPRLLIYGASTGATGVPARFSGSRSGTDFTLTITSLQPEDFATYYCQQYYSFLAKTFGQGTQLEIKR
notes: Human anti-serum albumin Fab in the classic form (VH+CH1 with Cys233, VL+CLk with Cys214); tested on phage and as soluble Fab purified from E. coli; also called SL335wt; SL335 Fab
For B1, the binding result in experiment [1], in experiment [4], in experiment [5], in experiment [6], in experiment [7] and in experiment [8] was “no binding” each time. Also, the binding result in experiment [9] was “binds”; in [10], “no binding”; in experiment [11], “no binding”. Further, the EC50 in experiment [2] worked out at 0.02 mg/L; in experiment [3] it was 0.04 mg/L. Moreover, in experiment [12], the “fold stronger binding at pH 6 than at pH 7.4” value was 2 fold.

For orientation: EC50 means the concentration needed to bring the measured effect to its halfway point.
